Literature values as cited in paper PMC11273449.

Columns and labels:
[1] = molecular target: Spike S1 subunit, BA.1 (SARS-CoV-2 BA.1 (Omicron)) (UniProt P0DTC2); test: cited; conditions: 5' hexynyl
[2] = system: Influenza A virion (Influenza A/PR/8/34); test: cited; conditions: 5' hexynyl

Sequence	Kd [1]	Kd [2]
TTTTTACGCCAAGGTGTCACTCCGTAGGGTTTGGCTCCGGGCCTGGCGTCGGTCGCGAAGCATCTCCTTGGCGT [Aptamer 4 (particle)]	5 nM	–
TTTTTGGCAGGAAGACAAACAGCCAGCGTGACAGCGACGCGTAGGGACCGGCATCCGCGGGTGGTCTGTGGTGCTGT [Influenza A aptamer (particle)]	–	55 nM
